Values belong to the binder of their own block, whether it stands above or below them.
Key:
human VEGF165 protein [1] = target: T1, human VEGF165 protein (human); experiment: ELISA; plates coated with recombinant human PD-L1 or VEGF165 (100 ng/well, carbonate buffer); antibody 1 h at room temperature; detected with HRP goat anti-human Fc, TMB, 450 nm; conditions: both partners purified
T1 construct: human VEGF-A, the 165-residue isoform VEGF165; also called VEGF dimer; source: bought: Sino Biological Inc. (11066-HNAH)

human VEGF165 protein [2] = target: T1, human VEGF165 protein; experiment: SPR; Biacore 8K, 25 °C; antibody or fusion protein captured by anti-human IgG (Fc) on a CM5 chip; analyte (VEGF165 from 3 nM or PD-L1 from 50 nM, 2-fold titrations) injected 120 s, dissociation 1800 s, 30 μL/min; single-cycle kinetics, 1:1 model; no enhancement step (buffer); conditions: both partners purified
human PD-L1 [3] = target: T2, human PD-L1 (Homo sapiens (Human)., UniProt Q9NZQ7); experiment: cell-based or functional assay
T2 sequence (Q9NZQ7 19-238): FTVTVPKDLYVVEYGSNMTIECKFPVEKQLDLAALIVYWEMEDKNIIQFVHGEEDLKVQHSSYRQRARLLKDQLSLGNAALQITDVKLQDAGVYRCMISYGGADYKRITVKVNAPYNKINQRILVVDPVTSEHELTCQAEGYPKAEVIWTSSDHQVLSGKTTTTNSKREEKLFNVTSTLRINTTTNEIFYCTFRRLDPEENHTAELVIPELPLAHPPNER

human PD-L1 [4] = target: T2, human PD-L1; experiment: ELISA; plates coated with recombinant human PD-L1 or VEGF165 (100 ng/well, carbonate buffer); antibody 1 h at room temperature; detected with HRP goat anti-human Fc, TMB, 450 nm; conditions: both partners purified
human PD-L1 [5] = target: T2, human PD-L1; experiment: SPR; as a1, but 10 nM human VEGF165 injected first to saturate VEGF binding by captured HB0025, then PD-L1 as analyte; conditions: both partners purified
human PD-L1 [6] = target: T2, human PD-L1; experiment: SPR; Biacore 8K, 25 °C; antibody or fusion protein captured by anti-human IgG (Fc) on a CM5 chip; analyte (VEGF165 from 3 nM or PD-L1 from 50 nM, 2-fold titrations) injected 120 s, dissociation 1800 s, 30 μL/min; single-cycle kinetics, 1:1 model; no enhancement step (buffer); conditions: both partners purified
human PD-L1 [7] = target: T2, human PD-L1; experiment: SPR; valence: HB0025 (300 RU), HB0023 (250 RU) or HB002.1T (200 RU) captured; 200 nM PD-L1 injected twice for 60 s, then 10 nM VEGF165 twice for 60 s; stoichiometric ratio from response units and molecular weights; running buffer pH 7.4; conditions: both partners purified

- EC50 (human VEGF165 protein [1]): 0.17 nM
- Kd (human VEGF165 protein [2]): 0.00111 nM
- koff (human VEGF165 protein [2]): 5.03e-05 s⁻¹
- kon (human VEGF165 protein [2]): 4.54e+07 M⁻¹ s⁻¹
B1: HB002.1T (VEGFR1D2-Ig fusion protein) (Fc fusion)
chain: SDTGRPFVEMYSEIPEIIHMTEGRELVIPCRVTSPNITVTLKKFPLDTLIPDGKRIIWDSRKGFIISNATYKEIGLLTCEATVNGHLYKTNYLTHRQTNTIID
modifications: Fc-dimerised fusion: D2 at the N-terminus of IgG Fc, with Fc and any linker left out. Limits are inferred from HB0025 numbering, assuming HB002.1T has the same D2. N36/N68 and the N99-T100 cleavage …

- EC50 of the recovery of IL-2 secretion in a mixed lymphocyte reaction (DCs and PBMCs, 3.8 pM-25 nM antibody); blocks PD-1/PD-L1 (human PD-L1 [3]): ~509 pM
- EC50 (human PD-L1 [4]): 0.67 nM
- Kd (human PD-L1 [5]): 1.98 nM
- koff (human PD-L1 [5]): 0.000395 s⁻¹
- kon (human PD-L1 [5]): 200000 M⁻¹ s⁻¹
- Kd (human PD-L1 [6]): 1.76 nM
- koff (human PD-L1 [6]): 0.00051 s⁻¹
- kon (human PD-L1 [6]): 290000 M⁻¹ s⁻¹
- stoichiometry N (human PD-L1 [7]): ~1.7 PD-L1 monomers per HB0025
B2: HB0025 (anti-PD-L1/VEGFR1D2-Ig fusion protein) (bispecific antibody, V domains shown)
VH: QVQLVQSGAEVKKPGASVKVSCKASGYAFTGYTIHWVRQAPGQRLEWMGWFYPGSGTLKYSEKFQGRVTITRDKSLSTAYMELSSLRSEDTAVYYCARHGTGTLMAMDYWGQGTLVTVSS
VL: DVVMTQTPLSLSVTPGQPASISCKSSQSLANSYGNTYLSWYLHKPGQSPQLLIYGISNRFSGVPDRFSGSGSGTDFTLKISRVEAEDVGVYYCLQGTHQPPTFGQGTKLEIK
notes: soluble extracellular domain 2 of human VEGF receptor 1 (VEGFR1D2); humanized VH of the parent anti-PD-L1 antibody HB0023; human IgG1 heavy constant domains, as in the heavy chain of HB0023; IgG1-like mAb-Trap format; Clinical trial NCT04678908; also called bispecific antibody; BsAb; copies: 2 +

— paper PMC8678608, “A Novel Bispecific Antibody Targeting PD-L1 and VEGF With Combined Anti-Tumor Activities” (Frontiers in Immunology, 2021)
